Results reported in patent US20130180016A1.

B1: Cry35Ab1 chymotrypsin core (chymotrypsin-truncated Cry35Ab1 core protein) (protein)
chain: MLDTNKVYEISNHANGLYAATYLSLDDSGVSLMNKNDDDIDDYNLKWFLFPIDDDQYIITSYAANNCKVWNVNNDKINVSTYSSTNSIQKWQIKANGSSYVIQSDNGKVLTAGTGQALGLIRLTDESSNNPNQQWNLTSVQTIQLPQKPIIDTKLKDYPKYSPTGNIDNGTSPQLMGWTLVPCIMVNDPNIDKNTQIKTTPYYILKKYQYWQRAVGSNVALRPHEKKSYTYEWGTEIDQKTTIINTLGFQINIDSGMKFDIPEVGGGTDEIKTQLNEELKIEYSHETKIMEKYQEQSEIDNPTDQSMNSIGFLTITSLELYRYNGSEIRIMQIQTSDNDTYNVTSYPNHQQALL
modifications: 125I-iodinated (Pierce Iodination Beads, Na125I) where used as the labelled ligand; unlabelled where used as competitor
B2: mixture of Cry35Ab1+Cry34Ab1 (binary toxin) (protein)
chain 1: B1 chain
chain 2: MSAREVHIDVNNKTGHTLQLEDKTKLDGGRWRTSPTNVANDQIKTFVAESNGFMTGTEGTIYYSINGEAEISLYFDNPFAGSNKYDGHSNKSQYEIITQGGSGNQSHVTYTIQTTSSRYGHKS
modifications: 125I-iodinated where the mixture holds the labelled ligand
B3: Cry3Ba1 trypsin core (protein)
chain: SQDRIRELFSQAESHFRNSMPSFAVSKFEVLFLPTYAQAANTHLLLLKDAQVFGEEWGYSSEDIAEFYQRQLKLTQQYTDHCVNWYNVGLNSLRGSTYDAWVKFNRFRREMTLTVLDLIVLFPFYDVRLYSKGVKTELTRDIFTDPIFTLNALQEYGPTFSSIENSIRKPHLFDYLRGIEFHTRLRPGYSGKDSFNYWSGNYVETRPSIGSNDTITSPFYGDKSIEPIQKLSFDGQKVYRTIANTDIAAFPDGKIYFGVTKVDFSQYDDQKNETSTQTYDSKRYNGYLGAQDSIDQLPPETTDEPLEKAYSHQLNYAECFLMQDRRGTIPFFTWTHRSVDFFNTIDAEKITQLPVVKAYALSSGASIIEGPGFTGGNLLFLKESSNSIAKFKVTLNSAALLQRYRVRIRYASTTNLRLFVQNSNNDFLVIYINKTMNIDGDLTYQTFDFATSNSNMGFSGDTNDFIIGAESFVSNEKIYIDKIEFIPVQ
modifications: 125I-iodinated (Pierce Iodination Beads, Na125I) where used as the labelled ligand; unlabelled where used as competitor

What was measured:
[1] = biological target: putative receptor(s) on brush border membrane vesicles (BBMV) prepared from midguts of third instars of the western corn rootworm (Diabrotica virgifera virgifera LeConte) (Diabrotica virgifera virgifera); assay: saturation radioligand binding to western corn rootworm BBMV (0.1 mg/ml), GraphPad Prism fit
[2] = biological target: putative receptor(s) on brush border membrane vesicles (BBMV) prepared from midguts of third instars of the western corn rootworm (Diabrotica virgifera virgifera LeConte) (Diabrotica virgifera virgifera)
[3] = biological target: putative receptor(s) on brush border membrane vesicles (BBMV) prepared from midguts of third instars of the western corn rootworm (Diabrotica virgifera virgifera LeConte) (Diabrotica virgifera virgifera); assay: homologous competition, 5 nM 125I-Cry3Ba1 on western corn rootworm BBMV (0.1 mg/ml), unlabelled Cry3Ba1 (0-2,500 nM) as competitor

| Binder | Kd [1] | binding site concentration Bmax [1] | specific binding as percent of the total binding [2] | percent of the total binding displaced [3] |
| --- | --- | --- | --- | --- |
| B1 | 11.7 nM | 0.78 pmol/mg BBMV |  |  |
| B2 |  |  | 90% |  |
| B3 | 7.35 nM | 0.55 pmol/mg BBMV |  | > 20% |
